Reference: the Immune Epitope Database (IEDB)

How the values were obtained:
HLA-A*02:01 = test: IEDB peptide-MHC binding, purified MHC/competitive/radioactivity; ≥ and ≤ were set here for values at or beyond the usual limits of such assays; conditions: source organism: Lassa virus Josiah
HLA-A*02:02 = test: as above
HLA-A*02:06 = test: as above
HLA-A*02:03 = test: as above
HLA-A*68:02 = test: IEDB peptide-MHC binding, purified MHC/competitive/radioactivity; filed as Kd, often an IC50 or EC50 that approximates it; ≥ and ≤ were set here for values at or beyond the usual limits of such assays
[1] = source organism: Lassa virus Josiah
[2] = source organism: Lassa virus GA391

Row | Sequence | IC50 (HLA-A*02:01) [nM] | also measured
1 | GLYKQPGVPV | 89 | 
2 | GLYNFATCGL | 31 | 
3 | IISTFHLSI | 330 | 
4 | ILAADLEKL | 92 | 
5 | LIALSVLAV | 102 | 
6 | LMSIISTFHL | 113 | 
7 | SLYKGVYEL | 47 | IC50 (HLA-A*02:02; [1]): 115 nM; IC50 (HLA-A*02:06; [1]): 395 nM; IC50 (HLA-A*02:03; [1]): 12 nM; Kd (HLA-A*68:02; [1]): ≥ 10000 nM
8 | VLIALSVLAV | 485 | 
9 | YLISIFLHL | 14 | IC50 (HLA-A*02:02; [2]): 173 nM; IC50 (HLA-A*02:06; [2]): 10 nM; IC50 (HLA-A*02:03; [2]): 11 nM; Kd (HLA-A*68:02; [2]): 6660 nM
